Measured values published in US20120316071A1 (published 2012).

T1: rHuman Erythropoietin R/Fc Chimera, CF (human, UniProt P19235 25-250)
T1 construct: Bought from R&D Systems; also called EPO R; EPO R/Fc; not shown: Fc of the bought chimera
T1 sequence (looked up): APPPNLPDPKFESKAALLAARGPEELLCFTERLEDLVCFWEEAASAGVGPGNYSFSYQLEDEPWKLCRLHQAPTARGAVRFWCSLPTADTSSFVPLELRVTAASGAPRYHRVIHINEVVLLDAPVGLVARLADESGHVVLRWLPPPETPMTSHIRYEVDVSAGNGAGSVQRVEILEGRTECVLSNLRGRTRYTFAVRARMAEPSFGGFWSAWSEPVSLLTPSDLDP

T2: rHuman Erythropoietin R/Fc Chimera, CF (R&D Systems Cat#963-ER) (human, UniProt P19235 25-250)
T2 construct: Bought recombinant Fc chimera; also called EPO R; EPO R/Fc; Fc part of the bought chimera not given
T2 sequence (looked up): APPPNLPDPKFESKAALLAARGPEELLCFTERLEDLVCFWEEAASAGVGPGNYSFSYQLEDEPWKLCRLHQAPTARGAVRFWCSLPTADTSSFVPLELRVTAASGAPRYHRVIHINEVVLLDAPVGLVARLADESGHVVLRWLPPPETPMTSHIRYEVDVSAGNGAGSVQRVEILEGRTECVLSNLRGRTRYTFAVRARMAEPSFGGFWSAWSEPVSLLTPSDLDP


Assays:
[1] = biological target: T3, rHuman ErbB2/Fc Chimera, CF (human, UniProt P04626 23-652); assay: ECL Multispot (MSD) assay; antigen spotted on plate, Fab in solution;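 also: fab bound 1 h at 20 °C, detected by TAG-labelled antibody electrochemiluminescence, signal relative to each well's blank, ratio of 4 or more marks a hit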
T3 construct: Bought from R&D Systems; also called human epidermal growth factor 2 receptor; not shown: Fc of the bought chimera

[2] = biological target: T4, rHuman IGF-1 sR, (IGF-1 sR), CF (human, UniProt P08069 31-932); assay: as above
T4 construct: Bought from R&D Systems; also called insulin-like growth factor-1 soluble receptor

[3] = biological target: T5, rHuman HGF R/c-MET/Fc Chimera, CF (human, UniProt P08581 25-932); assay: as above
T5 construct: Bought from R&D Systems; also called HGF R/Fc; hepatocyte growth factor receptor; not shown: Fc of the bought chimera

Recombinant Human DLL4 = biological target: T6, Recombinant Human DLL4 (human, UniProt Q9NR61 27-524); assay: as above
T6 construct: Bought from R&D Systems; also called delta-like protein 4; rHuman DLL4

[4] = biological target: T7, rHuman P-Cadherin/Fc Chimera, CF (human, UniProt P22223 108-654); assay: as above
T7 construct: Bought from R&D Systems; not shown: Fc of the bought chimera

[5] = biological target: T8, rHuman EGF R/Fc Chimera, CF (human, UniProt P00533 25-645); assay: as above
T8 construct: Bought from R&D Systems; also called epidermal growth factor receptor; not shown: Fc of the bought chimera

[6] = biological target: T9, rHuman CD44/Fc Chimera, CF (human, UniProt P16070 21-220); assay: as above
T9 construct: Bought from R&D Systems; not shown: Fc of the bought chimera

[7] = biological target: T10, rHuman Notch-1/Fc Chimera, CF (human, UniProt P46531 19-526); assay: as above
T10 construct: Bought from R&D Systems; not shown: Fc of the bought chimera

[8] = biological target: T1, rHuman Erythropoietin R/Fc Chimera, CF; assay: as above
[9] = biological target: T11, rHuman Notch-1/Fc Chimera, CF (R&D Systems Cat#3647-TK) (human, UniProt P46531 19-526); assay: ECL multispot (MSD) assay, antigen spotted on plate, 10 nM Fab;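 also: bound Fab detected with a TAG-labelled detection antibody (1 h, 20 °C), electrochemiluminescence read and compared with each well's blank, signal/blank of 4 or above scored as hit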
T11 construct: Bought recombinant Fc chimera; Fc part of the bought chimera not given

[10] = biological target: T12, rHuman HGF R/c-MET/Fc Chimera, CF (R&D Systems Cat#358-MT/CF) (human, UniProt P08581 25-932); assay: as above
T12 construct: Bought recombinant Fc chimera; also called HGF R/Fc; hepatocyte growth factor receptor; Fc part of the bought chimera not given

[11] = biological target: T2, rHuman Erythropoietin R/Fc Chimera, CF …; assay: as above
[12] = biological target: T13, rHuman CD44/Fc Chimera, CF (R&D Systems Cat#3660-CD) (human, UniProt P16070 21-220); assay: as above
T13 construct: Bought recombinant Fc chimera; Fc part of the bought chimera not given

[13] = biological target: T14, rHuman EGF R/Fc Chimera, CF (R&D Systems Cat#344-ER) (human, UniProt P00533 25-645); assay: as above
T14 construct: Bought recombinant Fc chimera; also called epidermal growth factor receptor; Fc part of the bought chimera not given

[14] = biological target: T15, rHuman IGF-1 sR, CF (R&D Systems Cat#391-GR) (human, UniProt P08069 31-932); assay: as above
T15 construct: Bought soluble receptor; also called insulin-like growth factor-1 soluble receptor

[15] = biological target: T16, rHuman P-Cadherin/Fc Chimera, CF (R&D Systems Cat#861-PC) (human, UniProt P22223 108-654); assay: as above
T16 construct: Bought recombinant Fc chimera; Fc part of the bought chimera not given

[16] = biological target: T17, rHuman ErbB2/Fc Chimera, CF (R&D Systems Cat#1129-ER) (human, UniProt P04626 23-652); assay: as above
T17 construct: Bought recombinant Fc chimera; also called human epidermal growth factor 2 receptor; Fc part of the bought chimera not given

[17] = biological target: T18, Recombinant Human DLL4 (R&D Systems Cat#1506-D4/CF) (human, UniProt Q9NR61 27-524); assay: as above
T18 construct: Bought recombinant protein; also called delta-like protein 4; rHuman DLL4

T5 sequence (P08581 25-932, change not shown): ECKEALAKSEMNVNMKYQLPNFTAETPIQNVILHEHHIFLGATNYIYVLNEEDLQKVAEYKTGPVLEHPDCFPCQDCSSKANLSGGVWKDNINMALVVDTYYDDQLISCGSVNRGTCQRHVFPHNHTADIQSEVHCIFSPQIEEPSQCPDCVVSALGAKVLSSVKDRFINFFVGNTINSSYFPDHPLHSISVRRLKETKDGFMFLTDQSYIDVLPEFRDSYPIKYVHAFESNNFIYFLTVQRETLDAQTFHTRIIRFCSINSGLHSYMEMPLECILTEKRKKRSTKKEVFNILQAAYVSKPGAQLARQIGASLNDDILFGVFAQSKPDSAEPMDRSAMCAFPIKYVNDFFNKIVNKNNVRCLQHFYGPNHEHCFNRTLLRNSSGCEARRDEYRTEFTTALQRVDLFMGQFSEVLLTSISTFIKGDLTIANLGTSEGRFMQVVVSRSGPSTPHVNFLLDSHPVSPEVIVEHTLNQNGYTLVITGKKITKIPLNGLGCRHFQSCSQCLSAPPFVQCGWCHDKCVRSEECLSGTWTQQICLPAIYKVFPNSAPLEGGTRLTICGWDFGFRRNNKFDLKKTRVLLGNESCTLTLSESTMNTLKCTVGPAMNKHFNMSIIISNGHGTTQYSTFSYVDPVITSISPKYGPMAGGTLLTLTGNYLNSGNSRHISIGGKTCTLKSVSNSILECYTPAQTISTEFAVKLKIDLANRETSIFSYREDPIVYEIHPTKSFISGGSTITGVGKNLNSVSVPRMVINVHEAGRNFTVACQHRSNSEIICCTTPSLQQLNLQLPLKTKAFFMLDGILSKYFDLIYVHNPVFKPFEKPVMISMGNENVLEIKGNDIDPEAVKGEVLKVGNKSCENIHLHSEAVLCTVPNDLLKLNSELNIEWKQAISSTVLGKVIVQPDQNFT
T12 sequence (P08581 25-932, change not shown): as above

ECL signal [1] | ECL signal [2] | ECL signal [3] | ECL signal (Recombinant Human DLL4) | ECL signal [4] | ECL signal [5] | ECL signal [6] | ECL signal [7] | ECL signal [8] | ECL signal [9] | ECL signal [10] | ECL signal [11] | ECL signal [12] | ECL signal [13] | ECL signal [14] | ECL signal [15] | ECL signal [16] | ECL signal [17] | Binder
333 | 386 | 432 | 182000 | 368 | 406 | – | – | – | – | – | – | – | – | – | – | – | – | Fab VH1-46_IGHD6-6*01_IGHJ1*01 S102A/S103P/S104F/H111F (APFF) & L6_IGKJ1*01 (Fab, V domains shown, Fab made in E. coli; the variable domains were cloned into Plasmid A (CH1, His and Flag tags) and Plasmid C (kappa CL); also called APFF / parent; H:APFF & L:wt) VH: QVQLVQSGAEVKKPGASVKVSCKASGYTFTSYYMHWVRQAPGQGLEWMGIINPSGGSTSYAQKFQGRVTMTRDTSTSTVYMELSSLRSEDTAVYYCAREEYAPFSAEYFQFWGQGTLVTVSS VL: not shown
242 | 275 | 223 | 134000 | 336 | 283 | 402 | 367 | 413 | – | – | – | – | – | – | – | – | – | Fab VH1-46_IGHD6-6*01_IGHJ1*01 S102A/S103P/S104F/H111F (APFF) & L6_IGKJ1*01 S28F (Fab, V domains shown, Fab made in E. coli; the variable domains were cloned into Plasmid A (CH1, His and Flag tags) and Plasmid C (kappa CL); also called APFF / S28F) VH: QVQLVQSGAEVKKPGASVKVSCKASGYTFTSYYMHWVRQAPGQGLEWMGIINPSGGSTSYAQKFQGRVTMTRDTSTSTVYMELSSLRSEDTAVYYCAREEYAPFSAEYFQFWGQGTLVTVSS VL: EIVLTQSPATLSLSPGERATLSCRASQFVSSYLAWYQQKPGQAPRLLIYDASNRATGIPARFSGSGSGTDFTLTISSLEPEDFAVYYCQQRSNWPPWTFGQGTKVEIKR
348 | 378 | 377 | 157000 | 521 | 351 | 502 | 440 | 424 | – | – | – | – | – | – | – | – | – | Fab VH1-46_IGHD6-6*01_IGHJ1*01 S102A/S103P/S104F/H111F (APFF) & L6_IGKJ1*01 S28A (Fab, V domains shown, Fab made in E. coli; the variable domains were cloned into Plasmid A (CH1, His and Flag tags) and Plasmid C (kappa CL); also called APFF / S28A) VH: QVQLVQSGAEVKKPGASVKVSCKASGYTFTSYYMHWVRQAPGQGLEWMGIINPSGGSTSYAQKFQGRVTMTRDTSTSTVYMELSSLRSEDTAVYYCAREEYAPFSAEYFQFWGQGTLVTVSS VL: EIVLTQSPATLSLSPGERATLSCRASQAVSSYLAWYQQKPGQAPRLLIYDASNRATGIPARFSGSGSGTDFTLTISSLEPEDFAVYYCQQRSNWPPWTFGQGTKVEIKR
– | – | – | – | – | – | – | – | – | 289 | 304 | 329 | 318 | 384 | 271 | 294 | 320 | 47400 | Fab VH1-46_IGHD6-6*01_IGHJ1*01 S102A/S103P/S104F/H111F T58A & L6_IGKJ1*01 (Fab, V domains shown, Fab (CH1 with His6/Flag tags from Plasmid A, kappa CL from Plasmid C); also called APFF T58A) VH: QVQLVQSGAEVKKPGASVKVSCKASGYTFTSYYMHWVRQAPGQGLEWMGIINPSGGSASYAQKFQGRVTMTRDTSTSTVYMELSSLRSEDTAVYYCAREEYAPFSAEYFQFWGQGTLVTVSS VL: not shown
270 | 348 | 355 | 124000 | 443 | 386 | 464 | 395 | 477 | – | – | – | – | – | – | – | – | – | Fab VH1-46_IGHD6-6*01_IGHJ1*01 S102A/S103P/S104F/H111F (APFF) & L6_IGKJ1*01 S28K (Fab, V domains shown, Fab made in E. coli; the variable domains were cloned into Plasmid A (CH1, His and Flag tags) and Plasmid C (kappa CL); also called APFF / S28K) VH: QVQLVQSGAEVKKPGASVKVSCKASGYTFTSYYMHWVRQAPGQGLEWMGIINPSGGSTSYAQKFQGRVTMTRDTSTSTVYMELSSLRSEDTAVYYCAREEYAPFSAEYFQFWGQGTLVTVSS VL: EIVLTQSPATLSLSPGERATLSCRASQKVSSYLAWYQQKPGQAPRLLIYDASNRATGIPARFSGSGSGTDFTLTISSLEPEDFAVYYCQQRSNWPPWTFGQGTKVEIKR
– | – | – | – | – | – | – | – | – | 393 | 337 | 427 | 378 | 439 | 374 | 390 | 203 | 151000 | Fab VH1-46_IGHD6-6*01_IGHJ1*01 S102A/S103P/S104F/H111F P53A & L6_IGKJ1*01 (Fab, V domains shown, Fab (CH1 with His6/Flag tags from Plasmid A, kappa CL from Plasmid C); also called APFF P53A) VH: QVQLVQSGAEVKKPGASVKVSCKASGYTFTSYYMHWVRQAPGQGLEWMGIINASGGSTSYAQKFQGRVTMTRDTSTSTVYMELSSLRSEDTAVYYCAREEYAPFSAEYFQFWGQGTLVTVSS VL: not shown
